Results on three molecules are retold here after PMC9544323, “Abscisic acid regulates stomatal production by imprinting a SnRK2 kinase–mediated phosphocode on the master regulator [sequence]” (Science Advances, 2022).

The target in the assay is T1, GST-SPCH (glutathione S-transferase-tagged …) (Arabidopsis thaliana, UniProt Q700C7 1-364).
T1 construct: cDNA cloned into pDEST15; cDNA recombined into pDEST15; also called GST-tagged SPCH; source: E. coli ArcticExpress (DE3), purified (Pierce Glutathione Agarose)
T1 sequence (looked up): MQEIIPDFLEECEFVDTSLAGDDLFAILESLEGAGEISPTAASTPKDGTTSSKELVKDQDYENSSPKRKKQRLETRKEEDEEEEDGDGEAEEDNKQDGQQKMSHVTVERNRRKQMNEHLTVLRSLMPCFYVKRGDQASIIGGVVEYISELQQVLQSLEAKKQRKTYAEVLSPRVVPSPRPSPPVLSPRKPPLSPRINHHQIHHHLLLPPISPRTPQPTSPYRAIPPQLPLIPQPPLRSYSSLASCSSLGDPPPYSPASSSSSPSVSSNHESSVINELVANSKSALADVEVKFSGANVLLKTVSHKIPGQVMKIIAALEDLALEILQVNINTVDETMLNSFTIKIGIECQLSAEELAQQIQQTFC
Briefly: pull-down; GST-SPCH or GST (1 ug) on Pierce Glutathione Agarose; MBP-SnRK2.2/2.3/2.6 or MBP alone (1 ug) added; 4 C, 2 hours; washed five times with 20 mM tris-HCl pH 7.5, 300 mM NaCl, 0.1% NP-40, 1 mM EDTA; blot with anti-MBP. The note with it: both partners purified.

B1: MBP-SnRK2.2 (maltose-binding protein-tagged SnRK2.2) (enzyme, Arabidopsis thaliana, UniProt Q39192 1-362, looked up)
chain: MDPATNSPIMPIDLPIMHDSDRYDFVKDIGSGNFGVARLMTDRVTKELVAVKYIERGEKIDENVQREIINHRSLRHPNIVRFKEVILTPSHLAIVMEYAAGGELYERICNAGRFSEDEARFFFQQLISGVSYCHAMQICHRDLKLENTLLDGSPAPRLKICDFGYSKSSVLHSQPKSTVGTPAYIAPEILLRQEYDGKLADVWSCGVTLYVMLVGAYPFEDPQEPRDYRKTIQRILSVTYSIPEDLHLSPECRHLISRIFVADPATRITIPEITSDKWFLKNLPGDLMDENRMGSQFQEPEQPMQSLDTIMQIISEATIPTVRNRCLDDFMADNLDLDDDMDDFDSESEIDVDSSGEIVYAL
notes: SnRK2.2/SRK2D, subclass III SNF1-related protein kinase 2, Arabidopsis thaliana; cDNA cloned into pETG-40A; also called SRK2D; source: E. coli ArcticExpress (DE3), purified (MBP amylose resin)
With B1, the binding result is “binds”.

B2: MBP-SnRK2.6 (maltose-binding protein-tagged SnRK2.6) (enzyme, Arabidopsis thaliana, UniProt Q940H6 1-362, looked up)
chain: MDRPAVSGPMDLPIMHDSDRYELVKDIGSGNFGVARLMRDKQSNELVAVKYIERGEKIDENVKREIINHRSLRHPNIVRFKEVILTPTHLAIVMEYASGGELFERICNAGRFSEDEARFFFQQLISGVSYCHAMQVCHRDLKLENTLLDGSPAPRLKICDFGYSKSSVLHSQPKSTVGTPAYIAPEVLLKKEYDGKVADVWSCGVTLYVMLVGAYPFEDPEEPKNFRKTIHRILNVQYAIPDYVHISPECRHLISRIFVADPAKRISIPEIRNHEWFLKNLPADLMNDNTMTTQFDESDQPGQSIEEIMQIIAEATVPPAGTQNLNHYLTGSLDIDDDMEEDLESDLDDLDIDSSGEIVYAM
notes: SnRK2.6/SRK2E/OST1, subclass III SNF1-related protein kinase 2, Arabidopsis thaliana; cDNA cloned into pETG-40A; also called SRK2E; OPEN STOMATA 1; source: E. coli ArcticExpress (DE3), purified (MBP amylose resin)
As for B2, the binding result is on record as “binds”.

B3: MBP-SnRK2.3 (maltose-binding protein-tagged SnRK2.3) (enzyme, Arabidopsis thaliana, UniProt Q39193 1-361, looked up)
chain: MDRAPVTTGPLDMPIMHDSDRYDFVKDIGSGNFGVARLMRDKLTKELVAVKYIERGDKIDENVQREIINHRSLRHPNIVRFKEVILTPTHLAIIMEYASGGELYERICNAGRFSEDEARFFFQQLLSGVSYCHSMQICHRDLKLENTLLDGSPAPRLKICDFGYSKSSVLHSQPKSTVGTPAYIAPEVLLRQEYDGKIADVWSCGVTLYVMLVGAYPFEDPEEPRDYRKTIQRILSVKYSIPDDIRISPECCHLISRIFVADPATRISIPEIKTHSWFLKNLPADLMNESNTGSQFQEPEQPMQSLDTIMQIISEATIPAVRNRCLDDFMTDNLDLDDDMDDFDSESEIDIDSSGEIVYAL
notes: SnRK2.3/SRK2I, subclass III SNF1-related protein kinase 2, Arabidopsis thaliana; cDNA cloned into pETG-40A; also called SRK2I; source: E. coli ArcticExpress (DE3), purified (MBP amylose resin)
Take B3: the binding result was “binds”.
